Experimental data as given in the supplement of paper PMC10724198.
± gives the standard deviation of the averaged measurements.

Test system: Saccharomyces cerevisiae
Assay: protein stability index of tFT-peptide fusion in deletion strain of DOA10 (PSI (0-1 scale)); higher = more stable (slower turnover)
Conditions: not given
Description: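 MPS profiling in S. cerevisiae of two library types built from selected 12-aa C-degron peptides (IN1, IN2, LN1, LN3, VN2, R1-R5, W1-W3, Atg1 and Rpa12 C-termini): saturation mutagenesis libraries and C-terminal +1 capping libraries (13 aa). Each peptide is fused to the C-terminus of a sfGFP-mCherry timer, after a GGGS linker. Cells are FACS-sorted into 8 mCherry/sfGFP bins and sequenced. PSI runs from 0 (unstable) to 1 (stable), measured once in wild type and in the das1Δ or doa10Δ background.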
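Wherever protein stability index of tFT-peptide fusion (C-terminal peptide) is given: PSI is a weighted mean of sequencing reads over stability bins, variants kept only with over 10 reads, mCherry proximal and sfGFP distal, peptide attached via GGGS linker.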
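Wherever protein stability index of tFT-peptide fusion in deletion strain of DOA10 is given: PSI per variant is the weighted mean of its sequencing read distribution over the sorted stability bins, counting only variants with over 10 reads summed across bins.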
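Wherever protein stability index of tFT-peptide fusion in wild type is given: PSI derived as read-weighted mean over the 8 sorting bins, only variants exceeding 10 total reads kept, mCherry placed adjacent to the peptide and sfGFP distal.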

Sequence | protein stability index
RSLRVLLPLYFRT | 0.655
RSLRVLLPLYFS | 0.352
RSLRVLLPLYFT | 0.478
RSLRVLLPLYKR | 0.662
RSLRVLLPSYFR | 0.668
RSLRVLLRLYFR | 0.625
RSLRVLLSLYFR | 0.643
RSLRVLLVLYFR | 0.389
RSLRVLRPLYFR | 0.684
RSLRVLYPLYFR | 0.67
RSLRVYLPLYFR | 0.678
RSLRWLLPLYFR | 0.642
RSLRYLLPLYFR | 0.671
RVPRLDAIYFRI | 0.669
RVTDLDAIYFRI | 0.678
RVTLLDAIYFRI | 0.662
RVTRGDAIYFRI | 0.693
RVTRKDAIYFRI | 0.664

Sequence | protein stability index
RVTRLDAGYFRI | 0.702
RVTRLDAIKFRI | 0.685
RVTRLDAISFRI | 0.727
RVTRLDAIWFRI | 0.676
RVTRLDAIYFQI | 0.305
RVTRLDAIYFRI | 0.681
RVTRLDAIYFRIW | 0.577
RVTRLDAIYFRL | 0.7
RVTRLDAIYFRQ | 0.589
RVTRLDAIYPRI | 0.731
RVTRLDAVYFRI | 0.68
RVTRLDAWYFRI | 0.717
RVTRLDKIYFRI | 0.51
RVTRLMAIYFRI | 0.295
RVTRSDAIYFRI | 0.695
RWLRVLLPLYFR | 0.682
WLYMCSVGCWFR | 0.633

Test system: Saccharomyces cerevisiae
Assay: protein stability index of tFT-peptide fusion (C-terminal peptide) (PSI (0-1 scale)); higher = more stable (slower turnover)
Conditions: genetic background: cdc34-1; temperature: 37 C
Description: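 MPS profiling in S. cerevisiae of the tFT-X12 degron library: putative degron peptides plus stable controls, 12 aa, fused to the C-terminus of a sfGFP-mCherry timer. Cells are FACS-sorted into 8 mCherry/sfGFP bins and deep-sequenced. PSI runs from 0 (unstable) to 1 (stable). Backgrounds are wild type, das1Δ and doa10Δ at 30 °C, and wild type, das1Δ, cdc34-1 and cdc53-1 at 37 °C; 2-3 technical replicates each.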

Sequence | protein stability index
RVTRLDAIYFRI | 0.265 ± 0.06

Same assay, conditions: genetic background: cdc53-1; temperature: 37 C

Sequence | protein stability index
RVTRLDAIYFRI | 0.198 ± 0.0072

Same assay, conditions: genetic background: das1 deletion; temperature: 30 C

Sequence | protein stability index
RVTRLDAIYFRI | 0.341 ± 0.031

Same assay, conditions: genetic background: das1 deletion; temperature: 37 C

Sequence | protein stability index
RVTRLDAIYFRI | 0.351 ± 0.012

Same assay, conditions: genetic background: doa10 deletion; temperature: 30 C

Sequence | protein stability index
RVTRLDAIYFRI | 0.717 ± 0.03

Same assay, conditions: genetic background: wild type; temperature: 30 C

Sequence | protein stability index
RVTRLDAIYFRI | 0.312 ± 0.014

Same assay, conditions: genetic background: wild type; temperature: 37 C

Sequence | protein stability index
RVTRLDAIYFRI | 0.323 ± 0.0054

Test system: Saccharomyces cerevisiae
Assay: protein stability index of tFT-peptide fusion in wild type (PSI (0-1 scale)); higher = more stable (slower turnover)
Conditions: genetic background: wild type

Sequence | protein stability index
RSLRVLLPLYFRT | 0.268
RSLRVLLPLYFS | 0.246
RSLRVLLPLYFT | 0.265
RSLRVLLPLYKR | 0.602
RSLRVLLPSYFR | 0.65
RSLRVLLRLYFR | 0.391
RSLRVLLSLYFR | 0.452
RSLRVLLVLYFR | 0.269
RSLRVLRPLYFR | 0.257
RSLRVLYPLYFR | 0.279
RSLRVYLPLYFR | 0.268
RSLRWLLPLYFR | 0.427
RSLRYLLPLYFR | 0.378
RVPRLDAIYFRI | 0.389
RVTDLDAIYFRI | 0.636
RVTLLDAIYFRI | 0.455
RVTRGDAIYFRI | 0.553
RVTRKDAIYFRI | 0.564

Sequence | protein stability index
RVTRLDAGYFRI | 0.673
RVTRLDAIKFRI | 0.66
RVTRLDAISFRI | 0.691
RVTRLDAIWFRI | 0.22
RVTRLDAIYFQI | 0.292
RVTRLDAIYFRI | 0.328
RVTRLDAIYFRIW | 0.234
RVTRLDAIYFRL | 0.395
RVTRLDAIYFRQ | 0.533
RVTRLDAIYPRI | 0.693
RVTRLDAVYFRI | 0.442
RVTRLDAWYFRI | 0.678
RVTRLDKIYFRI | 0.283
RVTRLMAIYFRI | 0.155
RVTRSDAIYFRI | 0.525
RWLRVLLPLYFR | 0.402
WLYMCSVGCWFR | 0.302

Test system: Saccharomyces cerevisiae
Assay: protein stability index of tFT-peptide fusion (C-terminal peptide) (PSI (0-1 scale)); higher = more stable (slower turnover)
Conditions: genetic background: wild type; temperature: 30 C

Sequence | protein stability index
RVTRLDAIYFRI | 0.381 ± 0.019
